Results published in IntAct's records for PubMed 14613973.

B1: Fibroblast growth factor receptor 3 (Homo sapiens), P22607-1 (parent)
chain: MGAPACALALCVAVAIVAGASSESLGTEQRVVGRAAEVPGPEPGQQEQLVFGSGDAVELSCPPPGGGPMGPTVWVKDGTGLVPSERVLVGPQRLQVLNASHEDSGAYSCRQRLTQRVLCHFSVRVTDAPSSGDDEDGEDEAEDTGVDTGAPYWTRPERMDKKLLAVPAANTVRFRCPAAGNPTPSISWLKNGREFRGEHRIGGIKLRHQQWSLVMESVVPSDRGNYTCVVENKFGSIRQTYTLDVLERSPHRPILQAGLPANQTAVLGSDVEFHCKVYSDAQPHIQWLKHVEVNGSKVGPDGTPYVTVLKTAGANTTDKELEVLSLHNVTFEDAGEYTCLAGNSIGFSHHSAWLVVLPAEEELVEADEAGSVYAGILSYGVGFFLFILVVAAVTLCRLRSPPKKGLGSPTVHKISRFPLKRQVSLESNASMSSNTPLVRIARLSSGEGPTLANVSELELPADPKWELSRARLTLGKPLGEGCFGQVVMAEAIGIDKDRAAKPVTVAVKMLKDDATDKDLSDLVSEMEMMKMIGKHKNIINLLGACTQGGPLYVLVEYAAKGNLREFLRARRPPGLDYSFDTCKPPEEQLTFKDLVSCAYQVARGMEYLASQKCIHRDLAARNVLVTEDNVMKIADFGLARDVHNLDYYKKTTNGRLPVKWMAPEALFDRVYTHQSDVWSFGVLLWEIFTLGGSPYPGIPVEELFKLLKEGHRMDKPANCTHDLYMIMRECWHAAPSQRPTFKQLVEDLDRVLTVTSTDEYLDLSAPFEQYSPGGQDTPSSSSSGDDSVFAHDLLPPAPPSSGGSRT

Variants of: B1
Conditions: with fgf1_human FGF1, P05230
Sequence of fgf1_human FGF1, P05230 (P05230 whole entry): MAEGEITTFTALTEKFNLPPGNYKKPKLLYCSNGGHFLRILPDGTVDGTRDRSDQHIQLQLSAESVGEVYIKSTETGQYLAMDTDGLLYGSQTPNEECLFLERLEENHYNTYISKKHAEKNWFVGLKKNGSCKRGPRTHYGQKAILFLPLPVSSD

| effect of a mutation on the interaction | Variant |
| --- | --- |
| increasing interaction strength | P250R |

Variants of: B1
Conditions: with fgf2_human FGF2, P09038
Sequence of fgf2_human FGF2, P09038 (P09038 whole entry): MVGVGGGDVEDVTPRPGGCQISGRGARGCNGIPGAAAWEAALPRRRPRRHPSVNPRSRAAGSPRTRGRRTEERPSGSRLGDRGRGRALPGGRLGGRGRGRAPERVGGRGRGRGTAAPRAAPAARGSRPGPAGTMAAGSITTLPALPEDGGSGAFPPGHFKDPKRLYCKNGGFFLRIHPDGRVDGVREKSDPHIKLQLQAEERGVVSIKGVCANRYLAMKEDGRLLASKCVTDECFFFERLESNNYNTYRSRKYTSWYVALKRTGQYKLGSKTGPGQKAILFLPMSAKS

| effect of a mutation on the interaction | Variant |
| --- | --- |
| causing an interaction | P250R |

Variants of: B1
Conditions: with fgf9_human FGF9, P31371

| effect of a mutation on the interaction | Variant |
| --- | --- |
| causing an interaction | P250R |
